According to PMC3999857, “Periodic DNA patrolling underlies diverse functions of Pif1 on R-loops and G-rich DNA” (eLife, 2014):

Substrate: Nc1ncnc2c1ncn2[C@@H]1O[C@H](COP(=O)(O)OP(=O)(O)OP(=O)(O)O)[C@@H](O)[C@H]1O
Assay: purified protein
Format: biochemical, Saccharomyces cerevisiae
Details: 3′-(dT)40 partial duplex DNA, monomer condition (10 nM Pif1 then wash), 5 mM MgCl2, 60 mM KCl, pH 7.5, 22 °C

B1: Pif1 (Saccharomyces cerevisiae S288C) (protein)
chain: RSNNFIQAQLKHPSILSKEDLDLLSDSDDWEEPDCIQLETEKQEKKIITDIHKEDPVDKKPMRDKNVMNFINKDSPLSWNDMFKPSIIQPPQLISENSFDQSSQKKSRSTGFKNPLRPALKKESSFDELQNNSISQERSLEMINENEKKKMQFGEKIAVLTQRPSFTELQNDQDDSNLNPHNGVKVKIPICLSKEQESIIKLAENGHNIFYTGSAGTGKSILLREMIKVLKGIYGRENVAVTASTGLAACNIGGITIHSFAGIGLGKGDADKLYKKVRRSRKHLRRWENIGALVVDEISMLDAELLDKLDFIARKIRKNHQPFGGIQLIFCGDFFQLPPVSKDPNRPTKFAFESKAWKEGVKMTIMLQKVFRQRGDVKFIDMLNRMRLGNIDDETEREFKKLSRPLPDDEIIPAELYSTRMEVERANNSRLSKLPGQVHIFNAIDGGALEDEELKERLLQNFLAPKELHLKVGAQVMMVKNLDATLVNGSLGKVIEFMDPETYFCYEALTNDPSMPPEKLETWAENPSKLKAAMEREQSDGEESAVASRKSSVKEGFAKSDIGEPVSPLDSSVFDFMKRVKTDDEVVLENIKRKEQLMQTIHQNSAGKRRLPLVRFKASDMSTRMVLVEPEDWAIEDENEKPLVSRVQLPLMLAWSLSIHKSQGQTLPKVKVDLRRVFEKGQAYVALSRAVSREGLQVLNFDRTRIKAHQKVIDFYLTLSSAESAYKQLEADEQVKKRKLDYAPGPKYKAKSKSKSNSPAPISATTQSNNGIAAMLQRHSRKRFQLKKESNSNQVHSLVSDEPRGQDTEDHILE
notes: purified His6-tagged Pif1, purification as in Boule et al. 2005; monomer
  Km: 110 ± 17 µM
